The values that follow come from PMC5378893 (Scientific Reports, 2015).

The target in assay [1] is T1, extracellular domain (ECD) of human epidermal growth factor receptor 2 (HER2) (Homo sapiens, UniProt P04626).
T1 construct: human epidermal growth factor receptor 2 (HER2), extracellular domain (domains I-IV); also called HER2/ECD
Put plainly: competition binding assay; competition of S90 scFvs with IgGs (six mouse IgGs, four positive control IgGs) for binding to HER2/ECD; procedure in the Supplemental Experimental Procedures.

Assay [2] has as its target T2, extracellular domain (ECD) of human epidermal growth factor receptor 2 (HER2) (Homo sapiens, UniProt P04626).
T2 construct: human epidermal growth factor receptor 2 (HER2), extracellular domain; also called HER2/ECD
Put plainly: SPR; BIAcore T200; HER2/ECD immobilised on a CM5 chip by amine coupling to 1000 RU; IgG flowed in PBST (0.05% Tween 20) at 30 uL/min; regeneration 10 mM glycine pH 1.5; global fit to a 1:1 binding model. The settings on record: both partners purified.

B1: Fab37 (positive control IgG) (antibody, V domains shown)
VH: EVQLVESGGGLVQPGGSLRLSCAASGFSIWWSWIHWVRQAPGKGLEWVASISPSSGWTSYADSVKGRFTISADTSKNTAYLQMNSLRAEDTAVYYCARWWSSAMDYWGQGTLVTVSS
VL: DIQMTQSPSSLSASVGDRVTITCRASQSVSSAVAWYQQKPGKAPKLLIYSASSLYSGVPSRFSGSRSGTDFTLTISSLQPEDFATYYCQQWWWWPSTFGQGTKVEIK
On to B1, for which the binding result in assay [1] is “binds”.

B2: GH2-59 IgG (antibody, V domains shown)
VH: EVQLVESGGGLVRPGGSLRLSCAASGFTIGDWYIHWVRQAPGKGLEWVAGIGPYWGYTSYADSVKGRFTISADTSKNTAYLQMNSLRAEDTAVYYCARFVGDVWHDMDYWGQGTLVAVSS
VL: DIQMTQSPSSLSASVGDRVTITCRASQDVSGGVAWYQQKPGKAPKLLISWTGSLYSGVPSRFSGSGSGTDFTLTISSLQPEDFATYYCQQWSDFPITFGQGTKVEIK
notes: source: HEK293-F, transient transfection, purified (Protein A, Superdex 200)
In assay [2], B2 showed a Kd of 6.02 nM, a dissociation rate constant (koff) of 0.000288 s⁻¹ and an association rate constant (kon) of 47800 M⁻¹ s⁻¹.

B3: GH2-65 IgG (antibody, V domains shown)
VH: EVQLVESGGGLVQPGGSLRLSCAASGFTIDDWGIHWVRQAPGKGLEWVAWIWPYWGYTFYADSVKGRFTISADTSKNTAYLQMNSLRAEDTAVYYCARFLDWNNNWMDYWGQGTLVTVSS
VL: DIQMTQSPSSLSASVGDRVTITCRASQDVSGWVAWYQQKPGKAPKLLISSASFLYSGVPSRFSGSGSGTDFTLTISSLQPEDFATYYCQQYYDFPVTFGQGTKVEIK
notes: as for B2
In assay [2], B3 gave a Kd of 31.8 nM, a koff of 0.0111 s⁻¹ and a kon of 350000 M⁻¹ s⁻¹.

B4: GH2-60 IgG (antibody, V domains shown)
VH: EVQLVESGGGLVQPGGSLRLSCAASGFTISDFGIHWVRQAPGKGLEWVAGIWPYWGYTYYADSVKGRFTISADTSKNTAYLQMNSLRAEDTAVYYCARFWNIYWNVMDYWGQGTLVTVSS
VL: DIQMTQGPSSLSASVGDRVTITCRASQDVGSWVAWYQQKPGKAPKLLISSPPSLYSGVPSRFSGSGSGTDFTLTISSLQPEDFATYYCQQGFDSPITFGQGTKVEIK
notes: as for B2
In assay [2], B4 had a dissociation constant Kd of 1.53 nM, a dissociation rate constant (koff) of 0.00556 s⁻¹ and a kon of 3.64e+06 M⁻¹ s⁻¹.

B5: GH2-91 IgG (antibody, V domains shown)
VH: EVQLVESGGGLVQPGGSLRLSCAASGFTINNFGIHWVRQAPGKGLEWVASIGPFWGYTSYADSVKGRFTISADTSKNTAYLQMNSLRAEDTAVYYCARFGNDYDGVMDYWGQGTLVTVSS
VL: DIQMTQSPSSLSASVGDRVTITCRASHDVGWGVAWYQQKPGKAPKLLISWPTYLYSGVPSRFSGSGSGTDFTLTISSLQPEDFATYYCQQYFSYPITFGQGTKVEIK
notes: as for B2
In assay [2], B5 yielded a Kd of 2.47 nM, a koff of 0.00679 s⁻¹ and a kon of 2.75e+06 M⁻¹ s⁻¹.

B6: GH2-7 IgG (antibody, V domains shown)
VH: EVQLVESGGGLVQPGGSLRLSCAASGFTIDDYFIHWVRQAPGKGLEWVAGIGPSWGYTFYADSVKGRFTISADTSKNTAYLQMNSLRAEDTAVYYCARFGHNFVNGMDYWGQGTLVTVSS
VL: DIQMTQSPSSLSASVGDRVTITCRASQDVSGWVAWYQQKPGKAPKLLISGTAGLYSGVPSRFSGSGSGTDFTLTISSLQPEDFATYYCQQYYDFPVTFGQGTKVEIK
notes: as for B2
In assay [2], B6 yielded a Kd of 9.84 nM, a dissociation rate constant (koff) of 0.0608 s⁻¹ and a kon of 6.18e+06 M⁻¹ s⁻¹.

B7: A21 (positive control IgG) (antibody, V domains shown)
VH: EVQLQQSGPEVVKTGASVKISCKASGYSFTGYFINWVKKNSGKSPEWIGHISSSYATSTYNQKFKNKAAFTVDTSSSTAFMQLNSLTSEDSAVYYCVRSGNYEEYAMDYWGQGTSVTVSS
VL: DIVLTQTPSSLPVSVGEKVTMTCKSSQTLLYSNNQKNYLAWYQQKPGQSPKLLISWAFTRKSGVPDRFTGSGSGTDFTLTIGSVKAEDLAVYYCQQYSNYPWTFGGGTRLEIK
notes: Positive control IgG; also called Antibody A21
As to B7, in assay [1], the binding result is on record as “binds”.

B8: GH2-36 IgG (antibody, V domains shown)
VH: EVQLVESGGGLVQPGGSLRLSCAASGFTIGGGGIHWVRQAPGKGLEWVAYIGPYGGYTSYADSVKGRFTISADTSKNTAYLQMNSLRAEDTAVYYCARFHDHIGGIMDYWGQGTLVTVSS
VL: DIQMTQSPSSLSASVGDRVTITCRASQDVNSNVAWYQQEPGKAPKLLIYFSSGLYSGVPSRFSGSGSGTDFTLTISSLQPEDFATYYCQQYYNWPLTFGQGTKVEIK
notes: as for B2
Turning to B8, in assay [2], the equilibrium dissociation constant (Kd) is 8.85 nM, the koff was 7.7 s⁻¹ and the association rate constant (kon) turned out to be 8.68e+08 M⁻¹ s⁻¹.

B9: GH2-61 IgG (antibody, V domains shown)
VH: EVQLVESGGGLVQPGGSLRLSCAASGFTINNWGIHWVRQAPGKGLEWVAGIWPYGGYTYYADSVKGRFTISADTSKNTAYLQMNSLRAEDTAVYYCARFYNHHGGVMDYWGQGTLVTVSS
VL: DIQMTQSPSSLSASVGDRVTITCRASQDVGSNVAWYQQKPGKAPKLLISWSTSLYSGVPSRFSGSGSGTDFTLTISSLQPEDFATYYCQQYGGWPITFGQGTKVEIK
notes: as for B2
With B9, in assay [2], the Kd came out at 0.27 nM, the koff amounted to 0.000104 s⁻¹ and the kon was 387000 M⁻¹ s⁻¹.

B10: GH2-40 IgG (antibody, V domains shown)
VH: EVQLVESGGGLVQPGGSLRLSCAASGFTINSWGIHWVRQAPGKGLEWVAWIGPYWGFTSYADSVKGRFTISADTSKNTAYLQMNSLRAEDTAVYYCARFDGHFDGVMDYWGQGTLVTVSS
VL: DIQMTQSPSSLSASVGDRVTITCRASQDVNNGVAWYQQKPGKAPKLLISGTPWLYSGVPSRFSGSGSGTDFTLTISSLQPEDFATYYCQQYFDWPLTFGQGTKVEIK
notes: as for B2
In assay [2], B10 registered an equilibrium dissociation constant (Kd) of 3.04 nM, a koff of 0.000217 s⁻¹ and a kon of 71200 M⁻¹ s⁻¹.

B11: GH2-66 IgG (antibody, V domains shown)
VH: EVQLVESGGGLVQPGGSLRLSCAASGFTIGNWGIHWVRQAPGKGLEWVAYIWPYWGFTYYADSVKGRFTISADTSKNTAYLQMNSLRAEDTAVYYCARFLDWNLLWMDYWGQGTLVTVSS
VL: DIQMTQSPSSLSASVGDRVTITCRASQDVYSYVAWYQQKPGKAPKLLISYASGLYSGVPSRFSGSGSGTDFTLTISSLQPEDFATYYCQQYYNSPITFGQGTKVEIK
notes: as for B2
In assay [2], B11 came in with a Kd of 54.5 nM, a koff of 0.328 s⁻¹ and a kon of 6.03e+06 M⁻¹ s⁻¹.

B12: GH2-72 IgG (antibody, V domains shown)
VH: EVQLVESGGGLVQPGGSLRLSCAASGFTISNGGIHWVRQAPGKGLEWVAYIWPSGGYTFYADSVKGRFTISADTSKNTAYLQMNSLRAEDTAVYYCARFFNNDWIGMDYWGQGTLVTVSS
VL: DIQMTQSPSSLSASVGDRVTITCRASQDVGYFVAWYQQKPGKAPKLLISGTTWLYSGVPSRFSGSGSGTDFTLTISSLQPEDFATYYCQQYSNWPLTFGQGTKVEIK
notes: as for B2
Consider B12, for which, in assay [2], the Kd is 11.9 nM, the koff came out at 10.9 s⁻¹ and the on-rate constant (kon) worked out at 9.15e+08 M⁻¹ s⁻¹.

B13: GH2-87 IgG (antibody, V domains shown)
VH: EVQLVESGGGLVQPGGSLRLSCAASGFTISSYGIHWVRQAPGKGLEWVAGIGPFGGFTSYADSVKGRFTISADTSKNTAYLQMNSLRAEDTAVYYCARFLNIHLGWMDYWGQGTLVTVSS
VL: DIQMTQSPSSLSASVGDRVTITCRASQDVNNSVAWYQQKPGKAPKLLIFGTRYLYSGVPSRFSGSGSGTDFTLTISSLQPEDFATYYCQQYYNYPLTFGQGTKVEIK
notes: as for B2
In assay [2], B13 showed a Kd of 13.3 nM, a koff of 0.00525 s⁻¹ and a kon of 395000 M⁻¹ s⁻¹.

B14: GH2-78 IgG (antibody, V domains shown)
VH: EVQLVESGGGLVQPGGSLRLSCAASGFTINNWGIHWVRQAPGKGLEWVAGIGPYGGYTSYADSVKGRFTISADTSKNTAYLQMNSLRAEDTAVYYCARFGVIIDGIMDYWGQGTLVTVSS
VL: DIQMTQSPSSLSASVGDRVTITCRASQDVNNSVAWYQQKPGKAPKLLISWPTGLYSGVPSRFSGSGSGTDFTLTISSLQPEDFATYYCQQYYSWPITFGQGTKVEIK
notes: as for B2
In assay [2], B14 returned a dissociation constant (Kd) of 49.4 nM, a koff of 0.00163 s⁻¹ and a kon of 33000 M⁻¹ s⁻¹.

B15: GH2-54 IgG (antibody, V domains shown)
VH: EVQLVESGGGLVQPGGSLRLSCAASGFTISDGSIHWVRQAPGKGLEWVAFIGPYWGFTYYADSVKGRFTISADTSKNTAYLQMNSLRAEDTAVYYCARFVNWVHYGMDYWGQGTLVTVSS
VL: DIQMTQSPSSLSASVGDRVTITCRASQDVNDNVAWYQQKPGKAPKLLIFGSSSLYSGVPSRFSGSGSGTDFTLTISSLQPEDFATYYCQQGWNYPFTFGQGTKVEIK
notes: as for B2
In assay [2], B15 gave a Kd of 37.9 nM, a koff of 0.0128 s⁻¹ and a kon of 339000 M⁻¹ s⁻¹.

B16: GH2-81 IgG (antibody, V domains shown)
VH: EVQLVESGGGLVQPGGSLRLSCAASGFTINDYGIHWVRQAPGKGLEWVAGIGPFGGYTSYADSVKGRFTISADTSKNTAYLQMNSLRAEDTAVYYCARFGVLFDGVMDYWGQGTLVTVSS
VL: DIQMTQSPSSLSASVGDRVTITCRASQDVNDGVAWYQQKPGKAPKLLISFTTGLYSGVPSRFSGSGSGTDFTLTISSLQPEDFATYYCQQYYNWPITFGQGTKVEIK
notes: as for B2
Consider B16, for which, in assay [2], the Kd was determined as 13.4 nM, the off-rate constant (koff) came to 0.0131 s⁻¹ and the kon is 975000 M⁻¹ s⁻¹.

B17: GH2-75 IgG (antibody, V domains shown)
VH: EVQLVESGGGLVQPGGSLRLSCAASGSTIGNSGIHWVRQAPGKGLEWVAYIGPYGGYTSYADSVKGRFTISADTSKNTAYLQMNSLRAEDTAVYYCARFDDYHWDGMDYWGQGTLVTVSS
VL: DIQMTQSPSSLSASVGDRVIITCRASQDVSGYVAWYQQKPGKAPKLLIYSSGVPSRFSGSGSGTDFTLTISSLQPEDFATYYCQQYYNWPVTFGQGTKVEIK
notes: as for B2
Turning to B17, in assay [2], binding was put at a Kd of 0.177 nM, the koff is 0.000149 s⁻¹ and the kon was found to be 840000 M⁻¹ s⁻¹.

B18: GH2-42 IgG (antibody, V domains shown)
VH: EVQLVESGGGLVQPGGSLRLSCAASGFTISNWGIHWVRQAPGKGLEWVAGIGPYGGYTSYADSVKGRFTISADTSKNTAYLQMNSLRAEDTAVYYCARFGFYFDGIMDYWGQGTLVTVSS
VL: DIQMTQSPSSLSASVGDRVTITCRASQDVSSGVAWYQQKPGKAPKLLISGPTGLYSGVPSRFSGSGSGTDFTLTISSLQPEDFATYYCQQYYDWPLTFGQGTKVKRG
notes: as for B2
In assay [2], B18 returned a Kd of 0.169 nM, a dissociation rate constant (koff) of 0.000235 s⁻¹ and a kon of 1.39e+06 M⁻¹ s⁻¹.
